We go through 22 molecules from US20060159695A1 (published 2006).

Residue numbers refer to the chain shown, from its start. A value given as a limit tells only on which side of the number the result lay.

One may read the Kd as the equilibrium constant for the complex coming apart. The koff is the rate constant with which the complex falls apart. As usually defined, the kon is a measure of how fast the partners come together.

The target in assay [1] is T1, soluble, extracellular domain of recombinantly expressed RSV F protein (human RSV).
T1 construct: extracellular domain; also called recombinant RSV F protein; recombinant RSV-F
Nature of the assay: SPR (Biacore), Fab over captured biotinylated RSV-F. (In general: Surface plasmon resonance follows binding to a sensor surface in real time, without labels.)

Assay [2] deals with RSV F protein on human RSV virus (Long strain) (human RSV, Long strain, UniProt P12568 26-574). Nature of the assay: cell-based or functional assay.
For assay [3], the target named is T1, soluble, extracellular domain of …. The assay can be described thus: SPR (Biacore), Fab over captured biotinylated RSV-F. This is another data set of the same source.
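Throughout, for Kd: purified Fabs injected at a single concentration, reference surface subtracted, rate constants from a one-to-one binding model fit, Kd computed as koff divided by kon.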
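Throughout, for koff: purified Fabs injected at a single concentration, reference surface subtracted, rate constants from a one-to-one binding model fit, Kd computed as koff divided by kon.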
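Throughout, for kon: purified Fabs injected at a single concentration, reference surface subtracted, rate constants from a one-to-one binding model fit, Kd computed as koff divided by kon.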

T1 sequence (P12568 26-109, chain 1 of 2): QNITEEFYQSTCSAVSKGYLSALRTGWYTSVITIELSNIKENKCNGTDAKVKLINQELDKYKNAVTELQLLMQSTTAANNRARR
T1 sequence (P12568 137-524, chain 2 of 2): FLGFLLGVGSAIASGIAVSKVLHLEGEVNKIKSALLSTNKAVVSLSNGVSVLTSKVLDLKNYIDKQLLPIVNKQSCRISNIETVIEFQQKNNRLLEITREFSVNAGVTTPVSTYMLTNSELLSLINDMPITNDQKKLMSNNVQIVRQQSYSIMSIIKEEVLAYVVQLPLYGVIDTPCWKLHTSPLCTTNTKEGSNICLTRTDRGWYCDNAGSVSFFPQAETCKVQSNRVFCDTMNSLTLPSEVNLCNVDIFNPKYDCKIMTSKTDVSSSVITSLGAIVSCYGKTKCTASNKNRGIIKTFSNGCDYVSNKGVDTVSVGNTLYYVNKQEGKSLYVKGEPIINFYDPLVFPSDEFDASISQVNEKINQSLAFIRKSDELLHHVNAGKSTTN

B1: Fab 007 (Fab, V domains shown)
VH: not shown
VL: DIVMTQSPDSLAVSLGERATINCRASQSVDLFGKSYMHWYQQKPGQPPKLLIYAASNPESGVPDRFSGSGSGTDFTLTISSLQAEDVAVYYCQQIIDDPWTFGQGTKVEIK
B1: in assay [1], the Kd was 0.058 nM, the koff worked out at 0.00019 s⁻¹ and the kon stood at 3.3e+06 M⁻¹ s⁻¹. Further, in assay [2], the “Viral Neut (fold increase over wild-type B23 Fab)” value was found to be 5 fold.

B2: Fab 022 (Fab, V domains shown)
VH: not shown
VL: B1 VL with K34T
Turning to B2, in assay [1], the Kd was found to be 0.025 nM, the koff was 5.4e-05 s⁻¹ and the kon is 2.16e+06 M⁻¹ s⁻¹. For the same molecule, the “Viral Neut (fold increase over wild-type B23 Fab)” value in assay [2] stood at 22 fold.

B3: Fab 014 (Fab, V domains shown)
VH: not shown
VL: B1 VL with Q27D, K34V
B3: in assay [1], the Kd amounted to 0.184 nM, the koff was determined as 7e-05 s⁻¹ and the kon was found to be 380000 M⁻¹ s⁻¹. In addition, the “Viral Neut (fold increase over wild-type B23 Fab)” value in assay [2] is less than 1 fold.

B4: Fab 026 (Fab, V domains shown)
VH: not shown
VL: B1 VL with Q27D, L31F
As for B4, in assay [1], the Kd turned out to be 0.028 nM, the koff was found to be 6.6e-05 s⁻¹ and the kon is 2.39e+06 M⁻¹ s⁻¹. Also, the “Viral Neut (fold increase over wild-type B23 Fab)” value in assay [2] was 20 fold.

B5: Fab 010 (Fab, V domains shown)
VH: not shown
VL: B1 VL with Q27D, K34R
On to B5, for which, in assay [1], the Kd was 0.047 nM, the koff stood at 0.00018 s⁻¹ and the on-rate constant (kon) was 3.8e+06 M⁻¹ s⁻¹. In addition, the “Viral Neut (fold increase over wild-type B23 Fab)” value in assay [2] was 18 fold.

B6: Fab 018 (Fab, V domains shown)
VH: not shown
VL: B1 VL with Q27D, K34Q, D97E
In the case of B6, in assay [1], the Kd worked out at 0.055 nM, the koff was determined as 8.8e-05 s⁻¹ and the kon was 1.6e+06 M⁻¹ s⁻¹.

B7: Fab 016 (Fab, V domains shown)
VH: not shown
VL: B1 VL with L31Y, K34V
Take B7: in assay [1], the Kd was determined as 0.09 nM, the koff is 9e-05 s⁻¹ and the kon amounted to 1e+06 M⁻¹ s⁻¹. The “Viral Neut (fold increase over wild-type B23 Fab)” value in assay [2] turned out to be 10 fold.

B8: Fab A10 (Fab, V domains shown)
VH: not shown
VL: B1 VL with F32L, K34G, D97E
As for B8, in assay [1], the Kd stood at 0.175 nM, the koff was 0.000147 s⁻¹ and the kon was 850000 M⁻¹ s⁻¹.

B9: Fab 025 (Fab, V domains shown)
VH: not shown
VL: B1 VL
With B9, in assay [1], the Kd is 0.018 nM, the koff was found to be 4.6e-05 s⁻¹ and the kon was 2.52e+06 M⁻¹ s⁻¹. Further, the “Viral Neut (fold increase over wild-type B23 Fab)” value in assay [2] amounted to 20 fold.

B10: Fab 032 (Fab, V domains shown)
VH: not shown
VL: B1 VL with Q27D, L31Y, K34R
Regarding B10, in assay [1], the Kd stood at 0.039 nM, the koff amounted to 3.6e-05 s⁻¹ and the kon was determined as 930000 M⁻¹ s⁻¹. The “Viral Neut (fold increase over wild-type B23 Fab)” value in assay [2] was greater than 23 fold.

B11: Fab 015 (Fab, V domains shown)
VH: not shown
VL: B1 VL with L31F, K34T
On to B11, for which, in assay [1], the Kd was determined as 0.016 nM, the koff is 7.8e-05 s⁻¹ and the kon worked out at 5e+06 M⁻¹ s⁻¹. Further, the “Viral Neut (fold increase over wild-type B23 Fab)” value in assay [2] was 8 fold.

B12: Fab 017 (Fab, V domains shown)
VH: not shown
VL: B1 VL with Q27D, L31Y, K34Q
Consider B12, for which, in assay [1], the Kd was 0.054 nM, the koff was found to be 8.1e-05 s⁻¹ and the kon is 1.5e+06 M⁻¹ s⁻¹. For the same molecule, in assay [2], the “Viral Neut (fold increase over wild-type B23 Fab)” value was greater than 23 fold.

B13: Fab 008 (Fab, V domains shown)
VH: not shown
VL: B1 VL with Q27D
For B13, in assay [1], the Kd is 0.133 nM, the koff turned out to be 0.00028 s⁻¹ and the association rate constant (kon) is 2.1e+06 M⁻¹ s⁻¹. In addition, in assay [2], the “Viral Neut (fold increase over wild-type B23 Fab)” value turned out to be 15 fold.

B14: Fab 029 (Fab, V domains shown)
VH: not shown
VL: B1 VL with Q27D, L31Y, K34V
On to B14, for which, in assay [1], the Kd came to 0.009 nM, the koff was determined as 4e-05 s⁻¹ and the kon was found to be 4.58e+06 M⁻¹ s⁻¹. The “Viral Neut (fold increase over wild-type B23 Fab)” value in assay [2] was greater than 23 fold.

B15: Fab 030 (Fab, V domains shown)
VH: not shown
VL: B1 VL with L31Y, F32L
Regarding B15, in assay [1], the Kd came to 0.073 nM, the koff was found to be 7.5e-05 s⁻¹ and the kon worked out at 1.03e+06 M⁻¹ s⁻¹. Besides, the “Viral Neut (fold increase over wild-type B23 Fab)” value in assay [2] was found to be 18 fold.

B16: Fab 019 (Fab, V domains shown)
VH: not shown
VL: B1 VL with Q27D, K34Q
On to B16, for which, in assay [1], the Kd came out at 0.0135 nM, the koff came out at 4.5e-05 s⁻¹ and the kon was 3.34e+06 M⁻¹ s⁻¹. The “Viral Neut (fold increase over wild-type B23 Fab)” value in assay [2] was greater than 23 fold.

B17: Fab 024 (Fab, V domains shown)
VH: not shown
VL: B1 VL with Q27D, K34T
As to B17, in assay [1], the Kd was determined as 0.002 nM, the koff is 7e-06 s⁻¹ and the kon was determined as 3.14e+06 M⁻¹ s⁻¹. In addition, the “Viral Neut (fold increase over wild-type B23 Fab)” value in assay [2] was greater than 23 fold.

B18: Fab 011 (Fab, V domains shown)
VH: not shown
VL: B1 VL with Q27D, K34Q
B18: in assay [1], the dissociation constant Kd was found to be 0.007 nM, the koff was 2.7e-05 s⁻¹ and the kon was 4e+06 M⁻¹ s⁻¹. Besides, in assay [2], the “Viral Neut (fold increase over wild-type B23 Fab)” value was greater than 23 fold.

B19: Fab 028 (Fab, V domains shown)
VH: not shown
VL: B1 VL with Q27D, K34V, D97E
On to B19, for which, in assay [1], the Kd stood at 0.02 nM, the koff turned out to be 8.6e-05 s⁻¹ and the kon was 4.2e+06 M⁻¹ s⁻¹. Moreover, the “Viral Neut (fold increase over wild-type B23 Fab)” value in assay [2] amounted to 18 fold.

B20: Fab 012 (Fab, V domains shown)
VH: not shown
VL: B1 VL
B20: in assay [1], the Kd was found to be 0.005 nM, the koff stood at 1.5e-05 s⁻¹ and the kon was 3e+06 M⁻¹ s⁻¹. Besides, the “Viral Neut (fold increase over wild-type B23 Fab)” value in assay [2] is 11 fold.

B21: Fab 009 (Fab, V domains shown)
VH: not shown
VL: B1 VL with Q27D, K34R
Turning to B21, the “fold decrease in binding dissociation constant (Kd) relative to A7” value in assay [3] is roughly 4 fold. In assay [1], the dissociation constant (Kd) was found to be 0.028 nM, the koff amounted to 7.9e-05 s⁻¹ and the kon came out at 2.8e+06 M⁻¹ s⁻¹. Moreover, in assay [2], the “Viral Neut (fold increase over wild-type B23 Fab)” value was found to be 19 fold.

B22: Fab 013 (Fab, V domains shown)
VH: not shown
VL: B1 VL with Q27D, K34Q
Turning to B22, in assay [1], the Kd is 0.058 nM, the koff was 0.00021 s⁻¹ and the kon was 3.6e+06 M⁻¹ s⁻¹. Further, the “Viral Neut (fold increase over wild-type B23 Fab)” value in assay [2] stood at 13 fold.
